Measurements as given in the supplement of paper PMC9112550, “Optimization of the antimicrobial peptide Bac7 by deep mutational scanning” (BMC Biology, 2022).

system: Escherichia coli TOP10; test: shrunken log2 fold change of peptide-encoding DNA abundance (4.5 h post-induction vs induction); higher = less antimicrobial activity (less host growth inhibition); conditions: time post-induction: 4.5 h; library: site-saturation at positions 5, 18, 19, 20
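Note: peptides expressed intracellularly from a pBAD plasmid library in pooled LB shake-flask culture, induced with 0.3% L-arabinose, DNA abundance read by NGS, three biological replicates, DESeq2 with apeglm shrinkage.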

| Sequence | shrunken log2 fold change |
| --- | --- |
| RRIRQRPPRLPRPRPRPKIFPRP | 0.041 |
| RRIRTRPPRLPRPRPRPHCLPRP | -0.305 |
| RRIRLRPPRLPRPRPRPQMPPRP | -0.417 |
| RRIRERPPRLPRPRPRPDPTPRP | -0.0306 |
| RRIRERPPRLPRPRPRPSYWPRP | -0.266 |
| RRIRCRPPRLPRPRPRPGWYPRP | -0.244 |
| RRIRIRPPRLPRPRPRPNCAPRP | -0.187 |
| RRIRSRPPRLPRPRPRPIWLPRP | 0.222 |
| RRIRHRPPRLPRPRPRPTIGPRP | -0.0227 |
| RRIRWRPPRLPRPRPRPLGTPRP | 0.0928 |
| RRIRKRPPRLPRPRPRPAYQPRP | 0.0163 |
| RRIRRRPPRLPRPRPRPHHEPRP | 0.0234 |
| RRIRCRPPRLPRPRPRPYIIPRP | -0.985 |
| RRIRTRPPRLPRPRPRPWPCPRP | -0.0128 |
| RRIRYRPPRLPRPRPRPNTDPRP | -0.964 |
| RRIRIRPPRLPRPRPRPFEVPRP | -0.162 |
| RRIRHRPPRLPRPRPRPGRTPRP | 0.208 |
| RRIRCRPPRLPRPRPRPIGPPRP | 0.112 |
| RRIRHRPPRLPRPRPRPTTWPRP | -0.182 |
| RRIRLRPPRLPRPRPRPSWKPRP | 0.132 |
| RRIRKRPPRLPRPRPRPQDQPRP | 0.325 |
| RRIRTRPPRLPRPRPRPDHGPRP | -0.0102 |

| Sequence | shrunken log2 fold change |
| --- | --- |
| RRIRTRPPRLPRPRPRPVSQPRP | 0.0169 |
| RRIRSRPPRLPRPRPRPPDQPRP | 0.674 |
| RRIRIRPPRLPRPRPRPNCYPRP | -0.923 |
| RRIRPRPPRLPRPRPRPDSMPRP | -0.326 |
| RRIRKRPPRLPRPRPRPEQSPRP | 0.94 |
| RRIRGRPPRLPRPRPRPMVHPRP | -0.0529 |
| RRIRERPPRLPRPRPRPYFNPRP | -0.583 |
| RRIRARPPRLPRPRPRPNFHPRP | 0.0254 |
| RRIRTRPPRLPRPRPRPMPVPRP | 0.0572 |
| RRIRYRPPRLPRPRPRPSDTPRP | -1.27 |
| RRIRCRPPRLPRPRPRPYVQPRP | -0.113 |
| RRIRMRPPRLPRPRPRPDHQPRP | 0.143 |
| RRIRFRPPRLPRPRPRPKLMPRP | 0.195 |
| RRIRGRPPRLPRPRPRPMIGPRP | 0.263 |
| RRIRTRPPRLPRPRPRPSLPPRP | -0.0317 |
| RRIRMRPPRLPRPRPRPFSSPRP | 0.0321 |
| RRIRDRPPRLPRPRPRPPSVPRP | 0.258 |
| RRIRKRPPRLPRPRPRPWNAPRP | 0.0384 |
| RRIRCRPPRLPRPRPRPLIGPRP | -0.0236 |
| RRIRCRPPRLPRPRPRPSSLPRP | -0.555 |
| RRIRPRPPRLPRPRPRPYTWPRP | -0.446 |
| RRIRERPPRLPRPRPRPWPMPRP | 0.00819 |

| Sequence | shrunken log2 fold change |
| --- | --- |
| RRIRIRPPRLPRPRPRPYHAPRP | -0.0781 |
| RRIRNRPPRLPRPRPRPVFLPRP | -0.215 |
| RRIRFRPPRLPRPRPRPFSHPRP | -1.36 |
| RRIRMRPPRLPRPRPRPTPPPRP | 1.17 |
| RRIRGRPPRLPRPRPRPYFLPRP | -0.345 |
| RRIRTRPPRLPRPRPRPLMYPRP | -0.736 |
| RRIRWRPPRLPRPRPRPNHVPRP | -0.651 |
| RRIRLRPPRLPRPRPRPWPFPRP | -0.0764 |
| RRIRCRPPRLPRPRPRPGECPRP | 0.198 |
| RRIRPRPPRLPRPRPRPCIVPRP | -0.199 |
| RRIRVRPPRLPRPRPRPTKIPRP | -0.321 |
| RRIRHRPPRLPRPRPRPNIIPRP | -0.307 |
| RRIRNRPPRLPRPRPRPMLDPRP | -0.000365 |
| RRIRVRPPRLPRPRPRPHVDPRP | 0.0108 |
| RRIRRRPPRLPRPRPRPFGTPRP | 0.0468 |
| RRIRGRPPRLPRPRPRPEMDPRP | 0.982 |
| RRIRSRPPRLPRPRPRPDKQPRP | -0.0566 |
| RRIRCRPPRLPRPRPRPAFVPRP | 0.179 |
| RRIRDRPPRLPRPRPRPARWPRP | 0.824 |
| RRIRLRPPRLPRPRPRPIHIPRP | -0.374 |
| RRIRQRPPRLPRPRPRPWQQPRP | -0.333 |
| RRIRLRPPRLPRPRPRPDKWPRP | 0.0575 |

| Sequence | shrunken log2 fold change |
| --- | --- |
| RRIRIRPPRLPRPRPRPYMMPRP | -1.26 |
| RRIRCRPPRLPRPRPRPGWLPRP | 0.801 |
| RRIRGRPPRLPRPRPRPQWKPRP | 0.113 |
| RRIRRRPPRLPRPRPRPRPDPRP | 0.855 |
| RRIRKRPPRLPRPRPRPKVMPRP | 0.0802 |
| RRIRERPPRLPRPRPRPEGVPRP | 0.172 |
| RRIRRRPPRLPRPRPRPKMRPRP | 0.733 |
| RRIRCRPPRLPRPRPRPQCMPRP | -0.833 |
| RRIRFRPPRLPRPRPRPRRTPRP | 0.375 |
| RRIRERPPRLPRPRPRPVQLPRP | -0.329 |
| RRIRGRPPRLPRPRPRPKCYPRP | 0.107 |
| RRIRVRPPRLPRPRPRPLQQPRP | -0.55 |
| RRIRLRPPRLPRPRPRPNHHPRP | -0.0905 |
| RRIRARPPRLPRPRPRPANGPRP | 0.109 |
| RRIRVRPPRLPRPRPRPSFKPRP | -0.202 |
| RRIRTRPPRLPRPRPRPNFIPRP | -0.457 |
| RRIRARPPRLPRPRPRPRNFPRP | -0.0153 |
| RRIRWRPPRLPRPRPRPSDIPRP | -0.031 |
| RRIRDRPPRLPRPRPRPDRTPRP | 0.0519 |
| RRIRKRPPRLPRPRPRPFSAPRP | -0.12 |
| RRIRYRPPRLPRPRPRPCAKPRP | -0.374 |
| RRIRERPPRLPRPRPRPILKPRP | -0.401 |

| Sequence | shrunken log2 fold change |
| --- | --- |
| RRIRIRPPRLPRPRPRPPEEPRP | 0.0652 |
| RRIRFRPPRLPRPRPRPMVMPRP | -0.696 |
| RRIRLRPPRLPRPRPRPLGSPRP | -0.00618 |
| RRIRMRPPRLPRPRPRPTDHPRP | 0.309 |
| RRIRFRPPRLPRPRPRPWCKPRP | -0.0278 |
| RRIRGRPPRLPRPRPRPCCFPRP | 0.773 |
| RRIRKRPPRLPRPRPRPDYFPRP | 0.0333 |
| RRIRTRPPRLPRPRPRPCFAPRP | 0.083 |
| RRIRPRPPRLPRPRPRPFPGPRP | -0.226 |
| RRIRSRPPRLPRPRPRPMYKPRP | -1.13 |
| RRIRLRPPRLPRPRPRPTFYPRP | -0.273 |
| RRIRTRPPRLPRPRPRPYCWPRP | -0.109 |
| RRIRHRPPRLPRPRPRPMLIPRP | -0.824 |
| RRIRKRPPRLPRPRPRPHPDPRP | -0.0313 |
| RRIRYRPPRLPRPRPRPVCMPRP | -0.314 |
| RRIRNRPPRLPRPRPRPDQEPRP | -0.00963 |
| RRIRCRPPRLPRPRPRPNNEPRP | -0.529 |
| RRIRERPPRLPRPRPRPKDMPRP | 0.00303 |
| RRIRLRPPRLPRPRPRPEDEPRP | 0.00911 |
| RRIRTRPPRLPRPRPRPRFGPRP | 0.319 |
| RRIRGRPPRLPRPRPRPFACPRP | 0.39 |
